Test: label from the status in PepcDB records
For “MDNTRSVYGIDLGTTYSCIAQVDKFDQAIVLRNFEGDATTPSAVYFEDMDHVVVGKEAKGMLATEPTKTAVFIKRHIGVDDSFDKNTNEFPYHYDPTEISAFILKKLVKDANDLGDNPEPIKDVVITCPAYFGTKERMQTKQAGEIAGLNVLSIINEPTAAAISYGVKTDQKKTVLVYDLGGGTFDVTLINVNGGAIKVIATGGDHHLGGVDWDTALAEYMLAAFNEQNNTSYSFEDRLDLKYELLLLAEDKKKVLTAKQTAKATYQYEGNSARIEISRELFNSLTERKLDETIDATKKVIAIAKEKGYNNIDEILLVGGSSRMPQIKERVDKEFNCDAKLTDPDECVAKGAAIYAMNAAYSQAVRDYEEGESDDKPAPLRGDRTTVVNVTSKTYGTDVIIEGQSMVQNLIFANSSLPTKRIETFTTSIPNQRGVSVKVFESDFTNMETESIVEERFCTLIDDHTLKLSKDWPQGTQISVTYQIDQEGILHGLAYVENDKLEFDLKITGVKCEEELRKSKAIIDKASVE”, the protein production was “failed”. For “MDPAMSFAEIFTVVVPVFLVIAVGYGTGRRALFDAGGAQALRELTMQLALPAALLLSIWQTPRRVLVEQLPLVGLLAFGLLGVYAVLLGVLRLAGRRPLRRAALFALACVQPQYAFMGTSILGGLFGTAQAAVPIAVAGILVNVVLDPVVLILLGMPEHPASRTAATAAAATSAVRRPALVTVGGGAPGESVEAAAPVAAGDASPEHRPSVLRTVGHALREPFCWGPVLGLILSVGGVGVPKVAGTSLTLLAGAASAAALLYVGVSVSRIGRPKLTPAVWAIALTSVVVLPLLVYGAGLAMASAADAAQAALIVAFPVSPVPLMFAARHGSKADVRTIGSAVVLSLLLSFVTLPLLIELIG”, the protein production was “not failed”. In the case of “MDPEKGTIRLDFMHSLGTWMVPELIRTFRAEHPNVEFQLHQAAAMLLVDRVLADETDLALVGPKPAEVGTSLGWAPLLRQRLALAVPADHRLASFSGQGELPLITAAEEPFVAMRAGFGTRLLMDALAEEAGFVPNVVFESME”, the protein production is reported as “failed”. In the case of “MDPLLLIGAITAGGVLIGGGVHFVPVGGAPAAMATATGVGTGTAMLAAGAGLTGLITAAAMTGQSPLMIMAAGAVGSMLMIGITMLVGNLIYVYGVGTVPVSAKVAVDPLTGMEQEKYVTPGTEGHGLPTVCFVSGIIGGALGGIGGGLIYWALNEALKTLSYGAIGAAGVAAIFAVGIFFINAVIASYNIGGTIEGFHDPKFKRIGRGIVACLIASIVAGALSTLLVYGGVF”, the protein production is reported as “failed”. With “MDPNTVSSFQVDCFLWHVRKRLADQELGDAPFLDRLRRDQKSLRGRGNTLGLDIETATRAGKQIVERILEEEPDEALKMPASRYLTDMTLEEMSRDWFMLMPKQKVAGSLCIKMDQAIMDKTIILKANFSVILDRLETLILLRAFTEEGAIVGEISPLPSLPGHTGEDVKNAIGVLIGGLEWNDNTVRVSETIQRFAWRSSDEDGRLPLPPNQKRKMARTIESEV” the protein production was “not failed”. For “MDPSLHARPHPRRRLRCALLALACGTGAAHAATPPPYLQTQRSFEQRAADLVSRMTLEEKAAQMQNAAPAIPRLGVPAYDWWNEALHGVARAGGATVFPQAIGMAATFDLPLMHEVATAISDEARAKHHRFLRQHQHARYQGLTFWSPNINIFRDPRWGRGQETYGEDPFLTARMGVTFVQGLQGEGSDAPKNAQGERYRKLDATAKHFAVHSGPEADRHHFDARPSQRDLYETYLPAFEALVKDGKVDAVMGAYNRVYGESASASKFLLQDVLRQQWGFKGYVVSDCWAIVDVWKHHKIVATREQAAALAVTHGTELECGEEYSTLPAAVHQGLIDEAQIDTALQTLMTARMRLGMFDPPGQLPWSKIPASVNQSPAHDALARRTARESLVLLKNDGLLPLSRATLKRIAVIGPTADDTMALLGNYYGTPAAPVTVLQGIRAAAPNAQVLYARGADLVEGRNDPAATPLIEPHYLRPSANSPERGLRGEYFRNRDLSGKPALVRVDAQIGFTWDRGSPTDNLLARGEAGPSEAVPADNFSIRWSGQLVPPTTGTYHLEAAADDGVRLYLDGKPVIDRWSTSDRLHADGVDVQLQAGRSYDLRLDYFEGERDAAVRLAWRQPGAKPPLQEALDVARSADVVVFVGGLTGDVEGEEMKVSYPGFAGGDRTDLRLPKPQRELLEALQATGKPVVAVLTAGSALAVDWAQQHVPAILLAWYPGQRGGTAVADTLFGDANPGGRLPVTFYKESETLPAFDDYAMHGRTYRYFGGTPLYPFGHGLSYTQFAYSDLRLDRSTLTADGALTATVAVKNTGQRAGDEVVQLYLHPLKPQRERAGKELRGFQRLALQPGQQRELRFTINAKDALRIYDAQRKAYTVDPGAYEVQIGASSADIRARQRFTVTDK”, the protein production was “failed”. In the case of “MDQEAFLRERIEKAQAQLQKLRDENRVLRARQIMWGCIEGTIDVCQLGEKDLQDLSSVIDDYLDSLKSRIEYLKKNGEPSSSLPPRVLQDLNVKEDGDIPSMDGSHHQFETNRLTTITTTADACAPNITNNP”, the protein production is reported as “failed”. In the case of “MDQLYQLAQAMIHNDLAVLSNPNVTLMVSGVILCFLVMENGFIPTAFLPGDTLLILTGVLIYQDVLHMGIVPLLMVATFIGTAIGYLQGYFLGHTQMYHRLLSHIDDKHQKKALYLIDKYGILTLLVARYIPFVRTIYPYIIGATGVSWSRFLVINFISSVMWITPLVGFGYVISHSKLANEYQTQFMSIIVYLPIVLLVSGIVTLIYKWLRKKKKL”, the protein production is reported as “failed”. In the case of “MDQPWNANIHYDALLDAMVPLGTQCVLDVGCGDGLLAARLARRIPYVTAVDIDAPVLRRAQTRFANAPIRWLHADIMTAELPNAGFDAVVSNAALHHIEDTRTALSRLGGLVTPGGTLAVVTFVTPSLRNGLWHLTSWVACGMANRVKGKWEHSAPIKWPPPQTLHELRSHVRALLPGACIRRLLYGRVLVTWRAPVLEHHHHHH”, the protein production is reported as “failed”. In the case of “MDQQSIVSILMILATFGLYIGISIYNRARATSDFYVASRGVPPFWNGMAIGGDWMSAASFIGMAGTIMILGYDGLAYIMGWTGGYLFLTFLFAPQLRKYGRYTVPEFIGDRYGSNTARLIAAIATIIISFTYIIGQLSGSGVVIGRILNIPAMYGTMIGVVVIAIYATLGGMKGITWTQVAQYIILIVAYIIPIVFMSLQLSGNPFPWLTYGNFISQLDGLDQELGLSQILQPFMESDKSQFIALMFTLMVGTAALPHVIVRFYTVTTMKAARWSGAWALIFIALLYLSAPAYAAFSRFILMTQVANQPIDQLPAWTEAWINTGLLEMADANGDGILQWEELRISNDIVVMATPEIANLGMFVIGLVAAGAMAAALSTAGGLLITISSSFAHDIYYRLMNPKASDQKRLLAGRIAIVLATIVAGVVALDPPGVITQIVAWAFGLAGGAFFPVLLLGVWWKRANAKGAIAGMLSGLAVTLVYIFLARTGTFTLFGIQDTGAGLIGVPVNLFVTIVVSLMTAAPSQKLQDEVVDLRYPEQMTYKDGEVWMDESSGK”, the protein production is reported as “failed”. In the case of “MDRECERDPYYDDLKVAKRAIEQMEMVAMMEGIPKFCPCGGSIVDTRKDEKRYYQCEKFKDDRTDLMHIRKLWDKAMEEEVSSLRESVDYNRKKVLSHEYLIEEMQKELKAHRAEIVNVSKVVFRNPMAPKK”, the protein production is reported as “failed”. With “MDRIKSWEYDDVYNKFAIKDLDKSSFKRGSHIPIKVRKVFECEDIKYGDKKKITLIYKGEAFPAEIEGEIKGRIRMNWPKLIPKMKEVFKNEINDFEDSKELSVRVPRLKFTKETAIKYDVEMKTKYSHDVLCELERLDIDVENKTIEEINEVGEVIERVVKARKNQNKFREALFKRDGKCKICGLAHKELLIASHIKPWSKSTPEEKLNPFNGFLLCPNHDSLFDKHLISFKDNGEIIISKRLSEKEQELLSINKDIMINIEEGNKKFLKEHRDVFCKIEKAFDLEKELAISNKEIYNVELEV” the protein production was “failed”. In the case of “MDRLPILKLGDCLLVTIQVELHDRLALTLQDDLTTMIANTGARGVLIDISALDIVDSFIARVLGNIAAMSRVLGAETMVVGMQPAVAITLVELGVTWQHMHTALSVERGLERLKVLIAERHTLRGHSPRGKRGGGVDGSRH”, the protein production is reported as “failed”. With “MDRLTEMEAFANVVDQGGFTDAAKKMGISKSAVSKHVSSLEARLGARLLNRTTRRVSPTEIGLAYYDRARRVLNDAGEADALVTSMQSAPSGLLRISVATDFGVNHLSPVLSDFLAEFPDITVNMVLNNRYVELISEGFDMAVRIGELEDSTLRARKLTETTKRMIASPKYFEKYGHPQKIDDLNEHKLLHYSSQASGNVWKLTAPSGEKRQVRTAGWLSVNDGQSLLNAAISGLGIAYLPCYLFAEAMEQGLVEDAMPSLPDEVQGIYAVYPPGRFTQPKVRAFIDFLVHSFADKGPMNW” the protein production was “not failed”. In the case of “MDSEAQQISLLIGKEDRYGRVEVNLMEVEPMNAEDFNAKLDVSFKAWKDQGKKGIWIKLPCELSSLVDIAMKKGFTYHHAENEYAVLSSWISDLPNTIPANASHRIGIGALVLNKNREVLAVQEIDGVFKDTGLWKLPTGVIQENRENFRYMANICLKRSQEKEYLGFSNVLTKNSTGKESYLYCSTDHAYFLKGKPDHSSTSLFTTLLRKCFSI”, the protein production is reported as “failed”. In the case of “MDSKDESSHVWPTSAEHEQNAAQVHFVPDTGTVAQIVYTDDQVRPPQQVVYTADGASYTSVDGPEHTLVYIHPVEAAQTLFTDPGQVAYVQQDATAQQASLPVHNQVLPSIESVDGSDPLATLQTPLGRLEAKEEEDEDEDEDTEEDEEEDGEDTDLDDWEPDPPRPFDPHDLWCEECNNAHASVCPKHGPLHPIPNRPVLTRARASLPLVLYIDRFLGGVFSKRRIPKRTQFGPVEGPLVRGSELKDCYIHLKVSLDKGDRKERDLHEDLWFELSDETLCNWMMFVRPAQNHLEQNLVAYQYGHHVYYTTIKNVEPKQELKVWYAASYAEFVNQKIHDISEEERKVLREQEKNWPCYECNRRFISSEQLQQHLNSHDEKLDVFSRTRGRGRGRGKRRFGPGRRPGRPPKFIRLEITSENGEKSDDGTQDLLHFPTKEQFDEAEPATLNGLDQPEQTTIPIPQLPQETQSSLEHEPETHTLHLQPQHEESVVPTQSTLTADDMRRAKRIRLELQNAALQHLFIRKSFRPFKCLQCGKAFREKDKLDQHLRFHGREGNCPLTCDLCNKGFISSTSLESHMKLHSDQKTYSCIFCPESFDRLDLLKDHVAIHINDGYFTCPTCKKRFPDFIQVKKHVRSFHSEKIYQCTECDKAFCRPDKLRLHMLRHSDRKDFLCSTCGKQFKRKDKLREHMQRMHNPEREAKKADRISRSKTFKPRITSTDYDSFTFKCRLCMMGFRRRGMLVNHLSKRHPDMKIEEVPELTLPIIKPNRDYFCQYCDKVYKSASKRKAHILKNHPGAELPPSIRKLRPAGPGEPDPMLSTHTQLTGTIATPPVCCPHCSKQYSSKTKMVQHIRKKHPEFAQLSNTIHTPLTTAVISATPAVLTTDSATGETVVTTDLLTQAMTELSQTLTTDYRTPQGDYQRIQYIPVSQSASGLQQPQHIQLQVVQVASATSPHQSQQSTVDVGQLHDPQPYPQHAIQVQHIQVSEPTASAPSSAQVSGQPLSPSAQQAQQGLSPSHIQGSSSTQGQALQQQQQQQQNSSVQHTYLPSAWNSFRGYSSEIQMMTLPPGQFVITDSGVATPVTTGQVKAVTSGHYVLSESQSELEEKQTSALSGGVQVEPPAHSDSLDPQTNSQQQTTQYIITTTTNGNGSSEVHITKP”, the protein production is reported as “failed”. With “MDSLTSLTSFVRTAETLSFVQAARLLGISASAVGKNVARLEHKLGVRLFNRSTRNVSLTAEGAAFLTRCQSILEQIQEAESELTSSLSQPTGKLRISLPVIGYRLLLPALTAFSRLYPQVELDLDFSDRLVNLIDEGVDVAIRSGELADSRLIARKLGGFRFVLCASPAYLAEYGAPDSPAELAAHKCIFFRFPATGLIQPWELRGMRLTGDFRSAAVMTVNNIEAAIRLSAAGMGIAYVPDFVVREAMDEGQLQEVLPGCCIKDGHFSVLWPASRYLSPRIRCFIDFMAAAEIPLSPASAPPPLVSNNLR” the protein production was “failed”. For “MDSSLANINQIDVPSKYLRLLRPVAWLCFLLPYAVGFGFGITPNASLQHAVLGLLSFAFWMAFSFTINALYDRDVDRLHDGRVKDLNLSMQPLVTGEISVREAWLYCIAFLALSLATAAAINEKFFLAMLGANIIGYVYSAPPRFKAWPVMDVICNALAAVLAFYAGLSIGGAEVPIAIYPAAFFLAATFYIPTAVSDYEFDKKAGLKNTPVFFGPERALKSLYPLSAITVILWAYVFLMAERIEIKVISPLIIAYTLIYTFIINSRWDGEKLNVSPNLILTPFGIISALFIAYGFAVISVLG”, the protein production was “failed”.
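Further: failed if final PepcDB status was selected cloned or expressed and not failed if soluble or beyond.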
